In US20030124132A1 (University of Texas, published 2003):

Experiments:
[1] = system: L540 human Hodgkin's disease tumors; test: Growth of L540 tumors after immunoglobulin-tTF conjugate and/or etoposide; format: in vivo, mice; conditions: day 14
Description: (§1) The tumor test systems were: i) L540 human Hodgkin's disease tumors growing in SCID mice; ii) C1300 Muγ (interferon-secreting) neuroblastoma growing in nu/nu mice; iii) H460 human non-small cell lung carcinoma growing in nu/nu mice. To establish solid tumors, 1.5×10^7 tumor cells were injected subcutaneously into the right anterior flank of SCID or BALB/c nu/nu mice (Charles River Labs., Wilmingham, Mass.). When the tumors had grown to various diameters, mice were assigned to different experimental groups, each containing 4 to 9 mice.
(§2) Other mice received equivalent quantities of bispecific antibody alone. The injections were performed over ˜45 seconds into one of the tail veins, followed by 200 μl of saline. The infusions were repeated six days later. Perpendicular tumor diameters were measured at regular intervals and tumor volumes were calculated.
Mice bearing L540 human Hodgkin's disease tumors were treated with a complex of tTF219 and a bispecific antibody together with the anti-cancer drug, etoposide, at a conventional dose.

[2] = system: mouse endothelial cells; test: Cell based two stage coagulation assay after TNFα stimulation
Description: (§3) Mouse endothelial cells were seeded in 48 well tissue culture plates and allowed to adhere overnight. Cells were stimulated with TNFα at the following concentrations: 500 U/ml; 100 U/ml; 20 U/ml; 4 U/ml; 0.8 U/ml; 0.16 U/ml; and with medium only.
Endothelial cells were also tested for coagulant activity in a cell based two stage coagulation assay. After incubation with TNFα, cells were washed and incubated with coagulation factor mix (0.5 μg/ml factor VIIa in a mix containing 2.8 μg/ml factor IX, 3.4 μg/ml factor X, 50 μM phospholipids, in calcium buffer). The supernatant of wells was transferred into a 96 well ELISA plate. Substrate S2765 was added and Factor Xa generation measured.

[3] = system: VCAM-1 on mouse endothelial cells; test: VCAM-1 upregulation on endothelial cells by TNFα (FACS); format: cell-based
Description: as §3
Endothelial cells were then investigated for upregulation of the adhesion molecule VCAM-1 by fluorescence activated cell stain (FACS). To this end, cells were stained with an antibody against murine VCAM-1, followed by an appropriate FITC-conjugated secondary antibody. Fluorescent cells were detected on a flow cytometer (Becton Dickinson, San Jose, Calif.).

[4] = system: bEnd 3 cells; test: Cell bound coagulation assay on stimulated endothelial cells (Factor Xa generation); format: cell-based, mouse
Description: (§4) To assay the coagulation induction of stimulated versus unstimulated endothelial cells, bend 3 cells were seeded in 48 well tissue culture plates at a density of 1×10^4 cells per well and allowed to adhere overnight. Cells were stimulated with endotoxin (0.5 μg/ml and 10 μg/ml) or TNFα (500 U/ml) for 4 h at 37° C. […] After incubation for 45 min at room temperature, cells were washed and incubated with various coagulation factor mixes as follows: (1) 0.5 μg/ml factor VIIa in a mix containing 2.8 μg/ml factor IX, 3.4 μg/ml factor X, 50 μM phospholipids, in calcium buffer (as specified above); (2) 0.01 μg/ml factor VIIa in a mix as in (1); (3) 2 μg/ml factor VII (Calbiochem-Novabiochem, San Diego, Calif.) in a mix as in (1); (4) 2 μg/ml factor VII. 0.01 μg/ml factor VIIa in a mix as in (1). The supernatant of wells was transferred into a 96 well ELISA plate. Substrate S2765 was added and Factor Xa generation measured alongside different concentrations of Factor Xa standard (7 nkatS2222; 0.7 nkatS2222; 0.07 nkatS2222). OD405 nm values were calculated as nkatS2222 Factor Xa from the Factor Xa standard curve.
as §4, with “bEnd” for “To assay the coagulation induction of stimulated versus unstimulated endothelial cells, bend”, “with” for “with various”, “mix” for “mixes”, “follows:” for “follows: (1)”, “buffer;” for “buffer (as specified above); (2) 0.01 μg/ml factor VIIa in a mix as in (1); (3) 2 μg/ml factor VII (Calbiochem-Novabiochem, San Diego, Calif.) in a mix as in (1); (4) 2 μg/ml factor VII. 0.01 μg/ml factor VIIa in a mix as in (1). The”

[5] = system: tissue factor on HUVEC cells; test: FACS analysis of tissue factor expression on endothelial cells; format: cell-based, human; conditions: TNFα 500 U/ml, LPS 10 μg/ml, VEGF 1 nM, alone or in combination, 6 h
Description: To analyze tissue factor expression on the surface of endothelial cells, HUVEC cells were incubated with TNFα (500 U/ml), LPS (10 μg/ml) or vascular endothelial growth factor (VEGF, 1 nM) alone or in combination for 6 h at 37°. Cells were then detached and stained for surface expression of human tissue factor with a sheep-anti-human tissue factor antibody (Haemochrom, Essen, Germany) and an appropriate FITC-conjugated secondary antibody. Fluorescent cells were detected on a flow cytometer (Becton Dickinson, San Jose, Calif.).

[6] = system: HT29 human colorectal carcinomas; test: Anti-tumor effects of tTF219 in HT29 tumors; format: in vivo, Nu/nu mice; conditions: large (1200 mm^3) tumors, i.v.
Description: Anti-tumor effects were also observed in mice bearing HT29 human colorectal carcinomas. Nu/nu mice bearing large (1200 mm^3) tumors on their flanks were injected intravenously with tTF219 or PBS (control), and growth of the tumors was monitored each day for 10 days. The tumors in the tTF219 treated mice discontinued growth for about 7 days after treatment, whereas the tumors in mice treated with PBS continued to grow unchecked.

[7] = system: HT29 (human colorectal carcinoma) xenograft; test: Tumor necrosis by tTF constructs with Factor VIIa, HT29 xenograft; format: in vivo, BALB/c nu/nu mice; conditions: single agents; 24 hours
[8] = system: A20 lymphoma cells (I-A^d positive), mouse or human plasma; test: In vitro coagulation assay on A20 cells with capture bispecific antibody B21-2/10H10; format: cell-based
[9] = system: C1300 Muγ mouse neuroblastoma vessels; test: In vivo tumor thrombosis by tTF, C1300 Muγ; set-up: species or system BALB/c nu/nu mice
Excerpt: (§5) Tumor test systems were of four types: i) 3LL mouse lung carcinoma growing subcutaneously in C57BL/6 mice; ii) C1300 mouse neuroblastoma growing subcutaneously in BALB/c nu/nu mice; iii) HT29 human colorectal carcinoma growing subcutaneously in BALB/c nu/nu mice; and iv) C1300 Muγ mouse neuroblastoma growing subcutaneously in BALB/c nu/nu mice. The C1300 Muγ tumor is an interferon-γ secreting transfectant derived from the C1300 tumor (Watanabe et al., 1989).
(§6) To establish tumors, 10^6 to 1.5×10^7 tumor cells were injected subcutaneously into the right anterior flank of the mice. When tumors had grown to various sizes, mice were randomly assigned to different study groups. […] Fab′, or bispecific antibody. Other mice received equivalent quantities IgG, Fab′ or bispecific antibody alone. The injections were performed slowly into one of the tail veins over approximately 45 seconds, usually followed by 200 μl of saline.
(§7) Twenty-four hours after being injected with tTF or immunoglobulin-tTF conjugates, the mice were anesthetized with metophane and were exsanguinated by perfusion with heparinized saline. Tumors and normal tissues were excised and immediately fixed in 3% (v/v) formalin. Paraffin sections were cut and stained with hematoxylin and eosin. Blood vessels having open lumens containing erythrocytes and blood vessels containing thrombi were counted. […]

[10] = system: H460 human lung carcinomas; test: Anti-tumor effects of tTF219 in H460 tumors; format: in vivo, nu/nu mice
Description: as §1, §2
In addition to the effects in mice bearing C1300 Muγ tumors, similar anti-tumor effects were observed using other tumor types. […] The second treatment with tTF219 was given when the tumors were larger (900 mm^3) and caused the tumors to regress to 550 mm^3 before regrowing.

[11] = system: C1300 Muγ tumors; test: Anti-tumor effects of tTF and immunoglobulin-tTF in C1300 Muγ tumors; format: in vivo, nu/nu mice; conditions: 300 mm^3 tumors
Description: as §1, §2
Mice bearing small (300 mm^3) C1300 Muγ tumors were injected intravenously with 16-20 μg tTF219. The treatment was repeated one week later. […] One week after the second treatment with tTF219, tumors were 60% of the size of tumors in mice receiving diluent alone. The greater effectiveness of the second injection probably derives from the greater thrombotic action of tTF219 on vessels in large tumors, observed above.
Mice bearing small (300 mm^3) subcutaneous C1300 Muγtumors were treated with tTF219 or with a complex of tTF219 and a bispecific antibody, OX7 Fab′/10H10 Fab′, not directed to a component of the tumor environment. The treatment was repeated 6 days later.

[12] = system: C1300 mouse neuroblastoma vessels; test: In vivo tumor thrombosis by tTF, C1300; set-up: species or system BALB/c nu/nu mice
Excerpt: as §5, §6, §7

[13] = system: 3LL mouse lung carcinoma vessels; test: In vivo tumor thrombosis by tTF, 3LL; set-up: species or system C57BL/6 mice; conditions: large (>800 mm^3) tumors
Excerpt: as §5, §6, §7

`COc1cc([C@@H]2c3cc4c(cc3[C@@H](O[C@@H]3O[C@@H]5CO[C@@H](C)O[C@H]5[C@H](O)[C@H]3O)[C@H]3COC(=O)[C@H]23)OCO4)cc(OC)c1O` [etoposide] showed an average tumor volume [1] of 1400 mm^3.

In the case of TNFα, the “TNFα at which an increase in coagulation versus negative control could be detected” value [2] is reported as 0.16 U/ml, the “dose for coagulation increase lower than for VCAM-1 increase” value [2] is reported as 125 fold and the “TNFα required for a measurable increase of VCAM-1 expression” value [3] is reported as 20 U/ml. The “Factor Xa generation” value ([4]; cells stimulated with TNFα (500 U/ml), then incubated with row agent (row Medium = stimulant alone), mix with 0.5 μg/ml factor VIIa) was 0.35 nkats2222, the “Factor Xa generation due to Factor VIIa production” value ([4]; cells stimulated with TNFα (row Medium = stimulant alone), mix with 2 μg/ml factor VII and 0.01 μg/ml factor VIIa) was 1.23 nkats2222 and the “tissue factor expression on the surface of HUVEC” value [5] was “upregulated tissue factor expression”.

B1: tTF219: residues 1-219 of TF plus an additional glycine at the N-terminus (protein)
chain: GSGTTNTVAAYNLTWKSTNFKTILEWEPKPVNQVYTVQISTKSGDWKSKCFYTTDTECDLTDEIVKDVKQTYLARVFSYPAGNVESTGSAGEPLYENSPEFTPYLETNLGQPTIQSFEQVGTKVNVTVEDERTLVRRNNTFLSLRDVFGKDLIYTLYYWKSSSSGKKTAKTNTNEFLIDVDKGENYCFSVQAVIPSRTVNRKSTDSPVECMGQEKGEFRE
B1 was tested, and the “time of discontinued tumor growth after treatment” value [6] was “about 7 days”, the tumor necrosis [7] was “some necrosis” and the plasma coagulation time ([8]; 10^−10 M tTF219, 13.5 nM Factor VIIa) was 20 s. For the same molecule, the plasma coagulation time ([8]; 10^−10 M tTF219, absence of Factor VIIa) was 60 s, the “increase in coagulation-inducing potency” value ([8]; presence of 0.1 nM Factor VIIa) was 2-5 fold and the “enhancement in coagulation-inducing potency” value ([8]; presence of 13.5 nM Factor VIIa) was ~100 fold. For the same molecule, the tumor vessel thrombosis ([9]; 24 hours after injection) was “practically all vessels in all regions of the tumor were thrombosed”, the tumor vessel thrombosis ([9]; small (<500 mm^3) tumors) was “largely unaffected” and the “effect on growth rate” value ([10]; first treatment, tumors 250 mm^3) was “little effect on growth rate”. For the same molecule, the “tumor volume to which tumors regressed” value ([10]; second treatment, given at 900 mm^3) was 550 mm^3, the “tumor size, of tumors in mice receiving diluent alone” value ([11]; 16-20 μg i.v., repeated one week later, one week after second treatment) was 60% and the “tumor size, of controls receiving diluent alone” value ([11]; treatment repeated 6 days later, fourteen days after the first injection) was 75%. The tumor vessel thrombosis ([12]; large tumors (>1000 mm^3), 24 hours after injection) was “virtually all vessels were thrombosed”, the tumor vessel thrombosis ([12]; small (<500 mm^3) tumors) was “largely unaffected” and the “tumor vessels thrombosed, average” value [13] was 62%.
